Residue numbers refer to the chain shown, from its start. Names and notes keep the numbering of the source.

Common to all, as to assay: SPR (BIACORE); KD of SG1 / KD of variant;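 also: relative to parent M103205H795-SG1 carrying the SG1 human heavy chain constant region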
In general terms: In SPR one partner is held on a chip, and binding of the other changes the refractive index at the surface.

The target of assay [1] is T1, cynomolgus monkey FcγRIIa3 extracellular domain, C-terminal His-tag (cynomolgus monkey).
T1 construct: also called cyno FcγRIIa3; cynoFcgRIIa3; not shown: His-tag added to C-terminus
T1 chain: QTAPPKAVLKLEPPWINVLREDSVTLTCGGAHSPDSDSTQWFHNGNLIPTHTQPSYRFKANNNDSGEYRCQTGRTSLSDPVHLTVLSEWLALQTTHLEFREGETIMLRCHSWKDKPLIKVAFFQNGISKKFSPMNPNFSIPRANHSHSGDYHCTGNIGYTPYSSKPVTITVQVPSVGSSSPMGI
As to the method:
(§1) The kinetic analysis of interactions between these antibodies and FcγR was carried out using BIACORE® T200 or BIACORE® 4000 (GE Healthcare). HBS-EP+ (GE Healthcare) was used as the running buffer, and the measurement temperature was set to 25° C. A chip produced by immobilizing Protein A. Protein A/G or mouse anti-human IgG kappa light chain (BD Biosciences) onto a Series S Sensor Chip CM4 or CM5 (GE Healthcare) by the amine-coupling method was used. […] After the measurement, the antibody captured on the chip was washed off by allowing reaction with 10 mM glycine-HCl, pH1.5 and 25 mM NaOH so that the chip was regenerated and used repeatedly. The sensorgrams obtained as measurement results were analyzed by the 1:1 Langmuir binding model using the BIACORE® Evaluation Software to calculate the binding rate constant ka (L/mol/s) and dissociation rate constant kd (l/s), and the dissociation constant KD (mol/L) was calculated from these values. […] Regarding such interactions, KD values were calculated using the following 1:1 binding model described in BIACORE® T100 Software Handbook BR1006-48 Edition AE.
(§2) The behavior of interacting molecules according to the 1:1 binding model on BIACORE® can be described by Equation 1: Req=C·R max/(KD+C)+RI, wherein, Req is a plot of steady-state binding levels to analyte concentration. C is concentration, RI is bulk refractive index contribution in the sample, and Rmax is analyte binding capacity of the surface. When this equation is rearranged, KD can be expressed as Equation 2: KD=C·Rmax/(Req−RI)−C. KD can be calculated by substituting the values of Rmax, RI, and C into Equation 1 or Equation 2. From the current measurement conditions, RI=0, C=2 μmol/L can be used.

The target in assay [2] is T2, human FcγRIIaR extracellular domain, C-terminal His-tag (human, UniProt P12318 34-217).
T2 construct: also called human FcγRIIa (type R); FcgRIIaR; not shown: His-tag added to C-terminus
T2 chain: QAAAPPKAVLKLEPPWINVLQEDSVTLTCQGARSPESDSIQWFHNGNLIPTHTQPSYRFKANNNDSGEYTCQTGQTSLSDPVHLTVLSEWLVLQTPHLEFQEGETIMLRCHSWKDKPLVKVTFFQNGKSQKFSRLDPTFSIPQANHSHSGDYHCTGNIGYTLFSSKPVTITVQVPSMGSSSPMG
As to the method: as §1, §2

The target of assay [3] is T3, cynomolgus monkey FcγRIIa1 extracellular domain, C-terminal His-tag (cynomolgus monkey).
T3 construct: also called cyno FcγRIIa1; cynoFcgRIIa1; not shown: His-tag added to C-terminus
T3 chain: T1 chain with T95P, A121T, S128A, P133H, N135D
As for the experimental part:
as §1, §2

In assay [4] the target is T4, cynomolgus monkey FcγRIIIaS extracellular domain, C-terminal His-tag (cynomolgus monkey, UniProt A3RFZ7 21-206 (rhesus entry)).
T4 construct: also called cyno FcγRIIIaS; cynoFcγRIIIaS; not shown: His-tag added to C-terminus
As to the method: as §1, §2

In assay [5] the target is T5, cynomolgus monkey FcγRIIa2 extracellular domain, C-terminal His-tag (cynomolgus monkey).
T5 construct: also called cyno FcγRIIa2; cynoFcgRIIa2; not shown: His-tag added to C-terminus
T5 chain: T1 chain with I127K, K130N, P133H, R142Q
As for the experimental part: as §1, §2

Assay [6] has as its target T6, human FcγRIIaH extracellular domain, C-terminal His-tag (human, UniProt P12318 34-217).
T6 construct: also called human FcγRIIa (type H); FcgRIIaH; not shown: His-tag added to C-terminus
T6 sequence: T2 chain with R134H
As for the experimental part:
as §1, §2

The target of assay [7] is T7, cynomolgus monkey FcγRIIb extracellular domain, C-terminal His-tag (cynomolgus monkey).
T7 construct: also called cyno FcγRIIb; cynoFcγRIIb; not shown: His-tag added to C-terminus
T7 chain: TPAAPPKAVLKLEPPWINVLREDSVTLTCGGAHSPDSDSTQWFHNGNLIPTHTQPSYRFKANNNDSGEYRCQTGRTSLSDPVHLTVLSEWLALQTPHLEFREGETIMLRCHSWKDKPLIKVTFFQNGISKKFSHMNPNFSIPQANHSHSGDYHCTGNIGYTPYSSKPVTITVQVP
As for the experimental part: as §1, §2

Assay [8] has as its target T8, human FcγRIIIaV extracellular domain, C-terminal His-tag (human, UniProt P08637 17-208).
T8 construct: also called FcgRIIIaV; not shown: His-tag added to C-terminus
As for the experimental part:
as §1, §2

The target in assay [9] is T9, human FcγRIIb extracellular domain, C-terminal His-tag (human, UniProt P31994 43-217).
T9 construct: also called humanFcgRIIb; not shown: His-tag added to C-terminus
T9 sequence: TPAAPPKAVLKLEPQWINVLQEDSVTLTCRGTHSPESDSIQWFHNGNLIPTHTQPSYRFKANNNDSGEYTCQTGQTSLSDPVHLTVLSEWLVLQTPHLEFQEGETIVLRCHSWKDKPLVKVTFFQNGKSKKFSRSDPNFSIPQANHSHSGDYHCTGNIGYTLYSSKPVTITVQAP
As to the method:
as §1, §2

T8 sequence (P08637 17-208 F176V): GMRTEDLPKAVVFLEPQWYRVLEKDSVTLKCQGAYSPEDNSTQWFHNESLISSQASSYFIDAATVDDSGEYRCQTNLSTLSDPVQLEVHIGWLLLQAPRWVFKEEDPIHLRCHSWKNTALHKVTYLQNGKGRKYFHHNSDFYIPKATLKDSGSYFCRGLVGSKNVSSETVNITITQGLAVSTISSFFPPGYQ
T4 sequence (A3RFZ7 21-206): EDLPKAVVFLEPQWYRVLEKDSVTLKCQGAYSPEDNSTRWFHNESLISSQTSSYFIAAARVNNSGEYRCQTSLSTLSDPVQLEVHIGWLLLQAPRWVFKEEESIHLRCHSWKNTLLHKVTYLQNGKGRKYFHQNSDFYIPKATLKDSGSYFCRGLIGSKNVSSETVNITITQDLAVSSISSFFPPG

B1: M103205H795-MY535 / M103202L889-SK1 (antibody, human IgG1, kappa)
heavy: QVTLKESGPVLVKPTETLTLTCTVSGIDLSHDDISWVRQAPGKGLEWVGIISYAGSTYYASWAKGRLTISKDTSKNQVVLTMTNMDPVDTATYYCARGVPAYSHGGDLWGQGTLVTVSSASTKGPSVFPLAPSSKSTSGGTAALGCLVKDYFPEPVTVSWNSGALTSGVHTFPAVLQSSGLYSLSSVVTVPSSSLGTQTYICNVNHKPSNTKVDKKVEPKSCDKTHTCPPCPGPEWLTGPSVFLFPPKPKDTLMISRTPEVTCVVVDVSDEDPEVKFNWYVDGVEVHNAKTKPREEQYNSTYRVVSVLTVLHQDWLNGKEYKCKVSNKALPKPIEKTISKAKGQPREPQVYTLPPSREEMTKNQVSLTCLVKGFYPSDIAVEWESNGQPENNYKTTPPVLDSDGSFFLYSKLTVDKSRWQQGNVFSCSVMHEALHNHYTQKSLSLSP
light: DIVMTQSPATLSLSPGERATLSCTSSQSVYHANWLSWFQQKPGQPPKLLIYWASTLAYGVPSRFSGSGSGTDFTLTISSLQPEDAATYYCAGGYGGGRYAFGQGTKVEIKRTVAAPSVFIFPPSDEQLKSGTASVVCLLNNFYPREAKVQWKVDNALQSGNSQESVTEQDSKDSTYSLSSTLTLSKADYEKHKVYACEVTHQGLSSPVTKSFNRGEC
In the case of B1, the “KD fold (SG1 = 1)” value was 5.7 fold in assay [1]; 1.7 fold in assay [2]; 2.1 fold in assay [3]; 0.17 fold in assay [4]; 3.6 fold in assay [5]; 1.5 fold in assay [6]. The “KD fold (SG1 = 1)” value in [7] came to 4.4 fold; in assay [8] it was 0.16 fold; in assay [9], 2.4 fold.

B2: M103205H795-MY538 / M103202L889-SK1 (A231G/L234W/G236T/H268D/Q295L/A330K, as in Table 23B) (antibody, human IgG1, kappa)
heavy: B1 heavy with Q297L
light: B1 light
Take B2: the “KD fold (SG1 = 1)” value in [1] was 5.7 fold; in assay [2] it was 1.8 fold; in assay [3], 3.3 fold; in assay [4], 0.15 fold; in assay [5] it was 4.6 fold; in assay [6], 2.8 fold. Further, the “KD fold (SG1 = 1)” value in [7] stood at 6.4 fold; in [8], 0.14 fold; in assay [9], 3.5 fold.

B3: M103205H795-MY536 / M103202L889-SK1 (antibody, human IgG1, kappa)
heavy: B1 heavy with S241V
light: B1 light
On to B3, for which the “KD fold (SG1 = 1)” value amounted to 17.3 fold in assay [1]; 5 fold in assay [2]; 2.7 fold in assay [3]; 0.23 fold in [4]; 4.6 fold in [5]; 2.4 fold in assay [6]. Moreover, the “KD fold (SG1 = 1)” value in [7] is 4.5 fold; in [8] it was 0.3 fold; in assay [9], 4.6 fold.

B4: M103205H795-MY537 / M103202L889-SK1 (antibody, human IgG1, kappa)
heavy: B1 heavy with S241V, Q297L
light: B1 light
With B4, the “KD fold (SG1 = 1)” value in assay [1] amounted to 12.1 fold; in [2] it was 3 fold; in [3], 2.7 fold; in [4], 0.24 fold; in [5], 4.6 fold; in assay [6] it was 2.5 fold. The “KD fold (SG1 = 1)” value in [7] was found to be 3.6 fold; in assay [8], 0.25 fold; in [9], 4.6 fold.

(Values after patent US20200317768A1 (published 2020).)
